According to paper PMC13170167, “Magnetosome organelles are organized through interactions between McaA and McaB that alter the dynamics of the bacterial actin-like protein MamK” (mBio, 2026):

Molecular target: the molecule itself
Test: co-sedimentation; pelleting assay; each protein at 1 µM in polymerization buffer (10 mM Tris-HCl pH 7.5, 25 mM KCl, 2 mM MgCl2, 1 mM DTT) with 1 mM ATP, 25°C for 10 min, 100,000 x g for 30 min at 4°C; SDS-PAGE of pellet and supernatant

B1: MamK (untagged recombinant) (natural protein, Magnetospirillum magneticum AMB-1, UniProt Q2W8Q6 1-347, looked up)
chain: MSEGEGQAKNRLFLGIDLGTSHTAVMSSRGKKFLLKSVVGYPKDVIGLKLLGRPYVVGDEAFEMRSYLDIRYPLQDGVLSEISDRDIEVARHLLTHVVKSAEPGPNDEICAVIGVPARASAANKALLLKMAQEVVHTALVVSEPFMVGYGLDKLINTIIVDIGAGTTDICALKGTVPGPEDQVTLTKAGNYVDERLQNAILERHPELQMNVNVACAVKEQFSFVGTPTEVASFEFRAAGKPVRADVTEPVKIACEALMPDIIESIETLLRSFQPEYQATVLQNIVFAGGGSRIRGLAAYVKEKLRPFGDANVTCVKDPTFDGCRGALRLAEELPPQYWRQLGDVSGS
notes: MamK, bacterial actin-like protein of Magnetospirillum magneticum AMB-1; untagged; printed as 37.6 kDa; monomeric fractions were pooled; it forms filaments with ATP in polymerization buffer; also called purified MamK; MamK filaments; source: E. coli BL21, purified (ammonium sulfate precipitation, anion exchange, gel filtration)
binding result: binds
